Assays:
[1] = test system: astrocytic CAAC / mBest1 channel (glutamate release); assay: Sniffer patch: astrocyte to GluR1 (L497Y)-expressing HEK293T cell pairs, TFLLR-induced glutamate release; format: cell-based, mouse; details: relative to scrambled shRNA
Experimental: (§1) The sniffer patch technique, which is used for determining whether or not one is permeable to glutamate, was performed as described in Lee, C. J. et al. Astrocytic control of synaptic NMDA receptors. J Physiol 581, 1057-81 (2007), which is hereby incorporated by reference for all purposes as if fully set forth herein.
(§2) 2. In experiments using astrocyte-HEK293T cell pairs, the sniffer patch techniques used naïve, scrambled- or mBest1-specific shRNA expressing (with GFP) astrocytes as a glutamate source; and GluR1 (L497Y) expressing HEK293T cells (with DsRED) as a detector. After obtaining gigaohm sealing, GluR1 (L497Y)-expressing cell was firstly ruptured, and then counterpart astrocytes were pressure-applied with 500 uM of TFLLR to evoke an increase in astrocytic intracellular Ca^2+ and resulting glutamate release onto the adjacent HEK293T cells.
(§3) GluR1LY-expressing detector cells were patched with the pipette solution pH 7.3 containing 110 mM CsGluconate, 30 mM CsCl, 5 mM HEPES, 4 mM NaCl, 2 mM MgCl2, 5 mM EGTA, and 1 mM CaCl2. The percentage of GluR1 (L497Y)-mediated current to the full activation level was analyzed by dividing the current amplitude of GluR1 (L497Y) current obtained through sniffer patch measurement by that of fully activated GluR1 (L497Y) current in the same cells.
(§4) The glutamate release through astrocytic CAACs was examined by using “sniffer-patch” technique and recording real-time glutamate release from cultured astrocytes (FIG. 10a). Using this technique, the present inventors observed that TFLLR-induced astrocytic glutamate release into an adjacent HEK293T cells expressing the non-desensitizing AMPA receptor subunit GluR1 (L497Y) mutant evoked an inward current sensitive to AMPA receptor antagonists, which is interpreted to reflect release of glutamate. The effects of TFLLR on current responses in transfected HEK293T cells was blocked by the treatment of niflumic acid (% block by niflumic acid=66.6±5.7%, FIGS. 10d to 10f), which is consistent with the idea that astrocytic CAAC is permeable to glutamate.

[2] = molecular target: T1, astrocytic CAAC / mBest1 channel (glutamate release) (Mus musculus, UniProt O88870, R255K); assay: as above; format: cell-based; details: sniffer patch, lentiviral shRNA expressing astrocytes, TFLLR
T1 construct: endogenous in cells; host or cells: cultured mouse cortical astrocytes
T1 sequence (O88870 1-551 R255K): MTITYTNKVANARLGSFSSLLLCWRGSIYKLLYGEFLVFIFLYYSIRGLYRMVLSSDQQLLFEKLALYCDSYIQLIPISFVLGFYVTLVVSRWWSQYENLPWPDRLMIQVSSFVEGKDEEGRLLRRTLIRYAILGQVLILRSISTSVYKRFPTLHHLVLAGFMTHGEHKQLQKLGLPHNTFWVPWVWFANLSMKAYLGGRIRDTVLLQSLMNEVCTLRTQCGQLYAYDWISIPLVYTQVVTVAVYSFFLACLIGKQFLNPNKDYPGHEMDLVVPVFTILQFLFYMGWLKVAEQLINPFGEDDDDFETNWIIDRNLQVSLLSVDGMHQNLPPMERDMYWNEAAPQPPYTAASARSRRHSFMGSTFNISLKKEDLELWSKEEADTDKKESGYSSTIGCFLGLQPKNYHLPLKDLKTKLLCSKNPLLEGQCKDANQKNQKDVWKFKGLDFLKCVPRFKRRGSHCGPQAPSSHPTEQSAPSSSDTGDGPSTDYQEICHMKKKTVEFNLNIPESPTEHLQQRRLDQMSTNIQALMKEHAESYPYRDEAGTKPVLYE
Experimental: as §1, §2, §3, §4

B1: mBest1 shRNA: mBest1-specific short hairpin RNA, SEQ ID NO: 3 and 4 (lentiviral: SEQ ID NO: 30), nucleotides 563-582 of mBest1 (nucleic acid)
chain 1: GATCCCCTTGCCAACTTGTCAATGAATTCAAGAGATTCATTGACAAGTTGGCAATTTTTA
chain 2: GGGAACGGTTGAACAGTTACTTAAGTTCTCTAAGTAACTGTTCAACCGTTAAAAATTCGA
**Q.** Which results are given for B1?
**A.** remaining component of glutamate release from astrocytes by mBest1 knock-down [1]: about 33%; percentage of GluR1 (L497Y)-mediated current to the fully activated GluR1 (L497Y) current by 1 mM glutamate [2]: 4.2±1.2%
